Experiment [1] concerns the target NA7-HFNef (HIV-1 (NA7)). Briefly: co-IP; cytosolic (soluble, high speed supernatant) fraction of co-transfected 293T cells in Buffer B; anti-HA monoclonal antibody precipitates the HF-tagged Nef, untagged Nef detected by Western blot; FD estimated from band densities.
For experiment [2], the target named is SF2-HFNef (HIV-1 (SF2)) (UniProt P03407). Described as above.
The target of experiment [3] is NA7-HFNef (HIV-1 (NA7)). Briefly: co-IP; membrane-associated protein fraction of co-transfected 293T cells, solubilised in Buffer B plus 0.5% IGEPAL CA-630; anti-HA monoclonal antibody precipitates the HF-tagged Nef, untagged Nef detected by Western blot; fractional dimerization (FD) estimated from band densities assuming strict dimers and a binomial distribution.
The target in experiment [4] is SF2-HFNef (HIV-1 (SF2)) (UniProt P03407). The description is as above.
For experiment [5], the target named is SIV_(MAC239)-HFNef (SIVmac239). The experiment is described as above.

Sequence of UniProt P03407 (P03407 whole entry): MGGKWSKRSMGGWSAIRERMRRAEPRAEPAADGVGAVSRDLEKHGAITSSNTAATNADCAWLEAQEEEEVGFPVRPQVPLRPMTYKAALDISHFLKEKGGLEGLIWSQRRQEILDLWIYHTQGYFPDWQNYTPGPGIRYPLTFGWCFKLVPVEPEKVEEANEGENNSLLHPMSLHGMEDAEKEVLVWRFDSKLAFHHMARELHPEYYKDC

Regarding NA7Nef (natural protein), the fractional dimerization (FD) with NA7-HFNef (HIV-1 (NA7)) [1] is 0.35; in the experiment with SF2-HFNef (HIV-1 (SF2)) [2], 0.23; in the experiment with NA7-HFNef (HIV-1 (NA7)) [3], 0.52; with SF2-HFNef (HIV-1 (SF2)) [4], 0.48.

As to SIV_(MAC239)Nef (natural protein), the fractional dimerization (FD) in experiment [5] was 0.37.

Values taken from paper PMC2955668.
